# Molecular target: 17T2 mAb de-glycosylated with PNGase F (human)
# Test: SPR
# Chain of 17T2 mAb de-glycosylated with PNGase F (human) (heavy, as listed by the source, chain 1 of 2): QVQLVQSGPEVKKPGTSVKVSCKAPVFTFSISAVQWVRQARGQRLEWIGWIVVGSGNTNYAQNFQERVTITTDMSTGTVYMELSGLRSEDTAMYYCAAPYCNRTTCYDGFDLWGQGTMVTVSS
# Chain of 17T2 mAb de-glycosylated with PNGase F (human) (light, as listed by the source, chain 2 of 2): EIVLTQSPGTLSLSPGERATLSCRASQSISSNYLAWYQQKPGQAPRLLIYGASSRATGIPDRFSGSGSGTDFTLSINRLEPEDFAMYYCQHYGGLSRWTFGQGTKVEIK
substance,measurement,value
"SARS-CoV-2 spike receptor binding domain, ancestral WH1 (from UniProt P0DTC2 319-541) (domain or fragment)",Kd,0.0749 nM
same,koff,0.00013 s⁻¹
same,kon,1.74e+06 M⁻¹ s⁻¹

# — paper PMC10844294
